Columns and labels:
[1] = biological target: T1, HIV-1 reverse transcriptase (Human immunodeficiency virus 1) (UniProt P03366+P03366); test: inhibition; details: Ki' printed as ≤ 3 uM; almost no inhibition at 81 nM
[2] = biological target: T1, HIV-1 reverse transcriptase (Human immunodeficiency virus 1); test: filter; details: apparent Kd, HRT buffer 37 C
[3] = tested on: AMV reverse transcriptase (Avian myeloblastosis virus); details: intramolecular 3' extension to end of template

Sequence | Ki [1] [nM] | Kd [2] [nM] | activity [3] [% initiation]
ATCCGCCTGATTAGCGATACTNNNNNNNNNNNNNNNNNNNNNNNNNNNNNNNNNNNACTTGAGCAAAATCACCTGCAGGGG [RO degenerate ssDNA library] | > 3000 | 1400 | 
ATCCGCCTGATTAGCGATACTTACGTGAGCGTGCTGTCCCCTAAAGGTGATACGTCACTTGAGCAAAATCACCTGCAGGGG [RT26] |  |  | 50

From patent publication US5786462
